Test results as given in publication PMC12381214 (2025).
Positions count from the first letter of the chain named. In names and notes the source's numbering stands.

B1: human Izumo1 ectodomain E71A (Izumo1E71A-His10-SpyTag-LPETGG) (domain or fragment)
chain: CVICDPSVVLALKSLEKDYLPGHLDAKHHKAMMERVENAVKDFQELSLNADAYMGVVDEATLQKGSWSLLKDLKRITDSDVKGDLFVKELFWMLHLQKETFATYVARFQKEAYCPNKCGVMLQTLIWCKNCKKEVHACRKSYDCGERNVEVPQMEDMILDCELNWHQASEGLTDYSFYRVWGNNTETLVSKGKEATLTKPMVGPEDAGSYRCELGSVNSSPATIINFHVTVLP
modifications: glycosylated (sites not given); SpyTag joined by an isopeptide bond to a SpyCatcher polyprotein
B2: human Izumo1 ectodomain R160A (Izumo1R160A-His10-SpyTag-LPETGG) (domain or fragment)
chain: B1 chain with A50E, R139A
modifications: glycosylated (sites not given); SpyTag joined by an isopeptide bond to a SpyCatcher polyprotein
B3: human Izumo1 ectodomain H157A (Izumo1H157A-His10-SpyTag-LPETGG) (domain or fragment)
chain: B1 chain with A50E, H136A
modifications: glycosylated (sites not given); SpyTag joined by an isopeptide bond to a SpyCatcher polyprotein

Each binder was assayed against human Juno ectodomain, wild type (Juno-His10-SpyTag-LPETGG) (human, glycosylated (sites not given); SpyTag joined by an isopeptide bond to a SpyCatcher polyprotein) (assay: FACS).
Chain of human Juno ectodomain, wild type (Juno-His10-SpyTag-LPETGG) (human, glycosylated (sites not given); SpyTag joined by an isopeptide bond to a SpyCatcher polyprotein) (chain, as listed by the source): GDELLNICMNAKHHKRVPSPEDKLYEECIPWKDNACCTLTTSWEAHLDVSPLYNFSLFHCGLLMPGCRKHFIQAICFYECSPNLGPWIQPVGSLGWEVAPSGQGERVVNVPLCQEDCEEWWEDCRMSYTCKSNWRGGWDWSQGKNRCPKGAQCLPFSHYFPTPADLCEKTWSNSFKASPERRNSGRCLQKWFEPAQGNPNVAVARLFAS
In the case of B1, the Kd is reported as 43 nM.
With B2 the Kd was 157 nM.
For B3, the Kd was 243 nM.
